Where “and” joins values, the source holds several entries; their conditions need not be identical. Identical values can stand only once.
Target: recombinant human galectin-3 protein (human) (UniProt P17931)
Test: AlphaScreen or HTRF; indirect AlphaLISA saturation binding; His-tagged tau K18 (0-100 nM, analyte) on anti-His donor beads, untagged GAL-3 (1, 3 and 10 nM) captured by anti-GAL-3 antibody and anti-rabbit IgG acceptor beads; proteins incubated 60 min at 4°C, beads 60 min at RT in the dark; assay buffer in DPBS; Kd = concentration at 50% saturation

Sequence of UniProt P17931 (P17931 whole entry): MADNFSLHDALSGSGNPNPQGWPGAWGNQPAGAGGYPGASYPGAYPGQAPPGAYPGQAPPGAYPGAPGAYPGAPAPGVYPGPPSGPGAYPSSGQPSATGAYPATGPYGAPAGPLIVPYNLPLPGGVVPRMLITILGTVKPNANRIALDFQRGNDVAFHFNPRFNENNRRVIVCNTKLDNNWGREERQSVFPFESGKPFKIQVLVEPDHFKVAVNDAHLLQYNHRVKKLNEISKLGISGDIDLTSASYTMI

Substance: His-tagged human tau K18 fragment (domain or fragment)
- Kd: 8.31 nM and 8.73 nM and 9.13 nM
